Substrate in one series: p-NP-C4
To be noted: 35 °C.

Substrate in a further series: gfPET
In words: Proxy for plastic degradation [Released monomer concentration (HPLC/LC-MS) (TPA+MHET)]. To be noted: pH 8.

Usually Km stands for the substrate concentration at which the rate is half of its maximum. As usually defined, the kcat is the maximal rate divided by the concentration of active sites. What is called kcat/Km is the turnover number divided by the Michaelis constant.

B1: unnamed (protein)
chain: MNFPRASRLMQAAVLGGLMAVSAAATAQTNPYARGPNPTAASLEASAGPFTVRSFTVSRPSGYGAGTVYYPTNAGGTVGAIAIVPGYTARQSSIKWWGPRLASHGFVVITIDTNSTLDQPSSRSSQQMAALRQVASLNGTSSSPIYGKVDTARMGVMGWSMGGGGSLISAANNPSLKAAAPQAPWDSSTNFSSVTVPTLIFACENDSIAPVNSSALPIYDSMSRNAKQFLEINGGSHSCANSGNSNQALIGKKGVAWMKRFMDNDTRYSTFACENPNSTRVSDFRTANCS
With B1, in the series with p-NP-C4 (part of the chain shown), the Michaelis-Menten constant (Km) was 240 µM. Moreover, the kcat with p-NP-C4 (part of the chain shown) is 15.1 s⁻¹. For the same protein, the catalytic efficiency (kcat/Km) in the series with p-NP-C4 (part of the chain shown) was 62900 M⁻¹ s⁻¹. The “Proxy for plastic degradation” value with gfPET (35 °C, 1 h, part of the chain shown) turned out to be 17 µM; with gfPET (35 °C, 3 h, part of the chain shown) it was 38 µM; in the series with gfPET (35 °C, 5 h, part of the chain shown), 45 µM; in the series with gfPET (35 °C, 7 h, part of the chain shown), 55 µM; in the series with gfPET (35 °C, 10 h, part of the chain shown), 77 µM; with gfPET (50 °C, 1 h, part of the chain shown) it was 10 µM. Further, the “Proxy for plastic degradation” value in the series with gfPET (50 °C, 3 h, part of the chain shown) is 25 µM; with gfPET (50 °C, 5 h, part of the chain shown), 50 µM; in the series with gfPET (50 °C, 7 h, part of the chain shown), 70 µM; with gfPET (50 °C, 10 h, part of the chain shown), 209 µM.

B2: unnamed (protein)
chain: MDGVLWRVRTAALMAALLALAAWALVWASPSVEAQSNPYQRGPNPTRSALTADGPFSVATYTVSRLSVSGFGGGVIYYPTGTSLTFGGIAMSPGYTADASSLAWLGRRLASHGFVVLVINTNSRFDYPDSRASQLSAALNYLRTSSPSAVRARLDANRLAVAGHSMGGGGTLRIAEQNPSLKAAVPLTPWHTDKTFNTSVPVLIVGAEADTVAPVSQHAIPFYQNLPSTTPKVYVELDNASHFAPNSNNAAISVYTISWMKLWVDNDTRYRQFLCNVNDPALSDFRTNNRHCQ
On to B2, for which the Km with p-NP-C4 was determined as 300 µM. The turnover number (kcat) in the series with p-NP-C4 was found to be 21.6 s⁻¹. Further, in the series with p-NP-C4, the kcat/Km stood at 71900 M⁻¹ s⁻¹. The “Proxy for plastic degradation” value with gfPET (35 °C, 1 h) was found to be 5 µM; with gfPET (35 °C, 3 h) it was 14 µM; with gfPET (35 °C, 5 h), 39 µM; with gfPET (35 °C, 7 h) it was 95 µM; with gfPET (35 °C, 10 h) it was 182 µM; with gfPET (50 °C, 1 h), 480 µM. Moreover, the “Proxy for plastic degradation” value was determined as 1470 µM with gfPET (50 °C, 3 h); 2380 µM with gfPET (50 °C, 5 h); 3250 µM with gfPET (50 °C, 7 h); 4130 µM in the series with gfPET (50 °C, 10 h).

The values are drawn from the PETadex activity labels (doi:10.1021/acs.est.4c01495).
